Test results taken from article PMC8983781.
Blank lines part the entries; values can stand above or below the molecule they belong to.

Columns and labels:
[1] = biological target: SP-C L188Q with the site 2 mutations (human) (UniProt P11686); assay: co-IP; 293T cells co-transfected with an SP-C construct and one co-chaperone (BiP co-transfected in the GRP170 experiments; 20 mM NEM in wash and lysis for ERdj5); NP-40 lysates 24 h after transfection, immunoprecipitated with anti-SP-C overnight at 4 °C, Protein A agarose, washed with buffer containing 0.4 M NaCl; co-chaperones detected by western blot; in Fig. 4 signals normalised to SP-C and expressed as percent of parental L188Q
[2] = biological target: 3HA-tagged SP-C L188Q (human) (UniProt P11686)
[3] = substrate: SP-C L188Q with the site 2 mutations (human) (UniProt P11686); assay: co-IP; 293T cells co-transfected with an SP-C construct and one co-chaperone (BiP co-transfected in the GRP170 experiments; 20 mM NEM in wash and lysis for ERdj5); NP-40 lysates 24 h after transfection, immunoprecipitated with anti-SP-C overnight at 4 °C, Protein A agarose, washed with buffer containing 0.4 M NaCl; co-chaperones detected by western blot; in Fig. 4 signals normalised to SP-C and expressed as percent …

Molecule: wild-type surfactant protein C (SP-C) proprotein, untagged (from UniProt P11686 1-58) (natural protein)
percent of wild-type SP-C that is palmitoylated (a measure of transport to the Golgi) when co-expressed with the L188Q mutant; 17.6% when expressed alone [2]: 10%

B2: GRP170 (human) (natural protein)
chain: LAVMSVDLGSESMKVAIVKPGVPMEIVLNKESRRKTPVIVTLKENERFFGDSAASMAIKNPKATLRYFQHLLGKQADNPHVALYQARFPEHELTFDPQRQTVHFQISSQLQFSPEEVLGMVLNYSRSLAEDFAEQPIKDAVITVPVFFNQAERRAVLQAARMAGLKVLQLINDNTATALSYGVFRRKDINTTAQNIMFYDMGSGSTVCTIVTYQMVKTKEAGMQPQLQIRGVGFDRTLGGLEMELRLRERLAGLFNEQRKGQRAKDVRENPRAMAKLLREANRLKTVLSANADHMAQIEGLMDDVDFKAKVTRVEFEELCADLFERVPGPVQQALQSAEMSLDEIEQVILVGGATRVPRVQEVLLKAVGKEELGKNINADEAAAMGAVYQAAALSKAFKVKPFVVRDAVVYPILVEFTREVEEEPGIHSLKHNKRVLFSRMGPYPQRKVITFNRYSHDFNFHINYGDLGFLGPEDLRVFGSQNLTTVKLKGVGDSFKKYPDYESKGIKAHFNLDESGVLSLDRVESVFETLVEDSAEEESTLTKLGNTISSLFGGGTTPDAKENGTDTVQEEEESPAEGSKDEPGEQVELKEEAEAPVEDGSQPPPPEPKGDATPEGEKATEKENGDKSEAQKPSEKAEAGPEGVAPAPEGEKKQKPARKRRMVEEIGVELVVLDLPDLPEDKLAQSVQKLQDLTLRDLEKQEREKAANSLEAFIFETQDKLYQPEYQEVSTEEQREEISGKLSAASTWLEDEGVGATTVMLKEKLAELRKLCQGLFFRVEERKKWPERLSALDNLLNHSSMFLKGARLIPEMDQIFTEVEMTTLEKVINETWAWKNATLAEQAKLPATEKPVLLSKDIEAKMMALDREVQYLLNKAKFTKPRPRPKDKNGTRAEPPLNASASDQGEKVIPPAGQTEDAEPISEPEKVETGSEPGDTEPLELGGPGAEPEQKEQSTGQKRPLKNDEL
percent of the binding to parental L188Q [3]: 30%

Now from value to molecule:

percent reduction of binding against parental L188Q [1]: 70%
Molecule: ERdj4-3HA (mouse) (from UniProt Q9QYI6 24-222) (natural protein)

percent reduction of binding against parental L188Q [3]: 30%
B1: ERdj5 (mouse) (natural protein)
chain: DQNFYSLLGVSKTASSREIRQAFKKLALKLHPDKNPNNPNAHGDFLKINRAYEVLKDEDLRKKYDKYGEKGLEDNQGGQYESWSYYRYDFGIYDDDPEIITLERREFDAAVNSGELWFVNFYSPGCSHCHDLAPTWREFAKEVDGLLRIGAVNCGDDRMLCRMKGVNSYPSLFIFRSGMAAVKYNGDRSKESLVAFAMQHVRSTVTELSTGNFVNAIETAFAAGVGWLITFCSKGEDCLTSQTRLRLSGMLDGLVNVGWVDCDAQDSLCKSLDTTASTTAYFPPGATLNDREKSSVLFLNSLDAKEIYMEIIHNLPDFELLSANQLEDRLAHHRWLVFFHFGKNENANDPELKKLKTLLKNEHIQVGRFDCSSAPGICSDLYVFQPCLAVFKGQGTKEYEIHHGKKILYDILAFAKESVNSHVTTLGPQNFPASDKEPWLVDFFAPWCPPCRALLPELRKASTLLYGQLKVGTLDCTIHEGLCNMYNIQAYPTTVVFNQSSIHEYEGHHSAEQILEFIEDLRNPSVVSLTPSTFNELVKQRKHDEVWMVDFYSPWCHPCQVLMPEWKRMARTLTGLINVGSVDCQQYHSFCTQENVQRYPEIRFYPQKSSKAYQYHSYNGWNRDAYSLRSWGLGFLPQASIDLTPQTFNEKVLQGKTHWVVDFYAPWCGPCQNFAPEFELLARMIKGKVRAGKVDCQAYPQTCQKAGIKAYPSVKLYQYERAKKSIWEEQINSRDAKTIAALIYGKLETLQSQVKRNKDEL
